Assays:
[1] = target: Wild-type PCNA (human) (human) (UniProt P12004)
[2] = test system: DNA polymerase delta (pol δ), exonuclease-deficient (human); assay: fluorescence anisotropy; conditions: 10 mM Mg2+; estimated from partial binding curve, single measurements; 25 mM TrisOAc pH 7.7, 10 mM Mg(OAc)2, 125 mM KOAc, 0.1 mg/ml BSA, 1 mM DTT, ionic strength adjusted to 200 mM with KOAc, room temperature
[3] = test system: DNA polymerase eta (pol η) (human); assay: fluorescence anisotropy; conditions: 10 mM Mg2+; 25 mM TrisOAc pH 7.7, 10 mM Mg(OAc)2, 125 mM KOAc, 0.1 mg/ml BSA, 1 mM DTT, ionic strength adjusted to 200 mM with KOAc, room temperature
[4] = test system: DNA polymerase delta (pol δ), exonuclease-deficient;Cy5-PCNA (human;human); assay: FRET; conditions: 3'-biotin (Neutravidin bound); 25 mM TrisOAc pH 7.7, 10 mM Mg(OAc)2, 125 mM KOAc, 0.1 mg/ml BSA, 1 mM DTT, ionic strength adjusted to 200 mM with KOAc, room temperature; cited from earlier work
[5] = test system: DNA polymerase eta (pol η);Cy5-PCNA (human;human); assay: FRET; conditions: pol η titrated onto Cy5-PCNA loaded by RFC (100 nM each), 1 mM ATP; 3'-biotin (Neutravidin bound); 25 mM TrisOAc pH 7.7, 10 mM Mg(OAc)2, 125 mM KOAc, 0.1 mg/ml BSA, 1 mM DTT, ionic strength adjusted to 200 mM with KOAc, room temperature
[6] = target: Cy3-pol η (human DNA polymerase eta, full length, N-terminally labeled with Cy3) (human) (UniProt Q9Y253); assay: FRET or BRET; competitive inhibition: pre-assembled Cy3-Pol η•Cy5-PCNA complex (200 nM Cy3-Pol η, 20 nM Cy5-PCNA) titrated with unlabeled competitor (PCNA, (Ub)3-PCNA or pol η, 0-5 μM); dose-response model, Ki from IC50 by the Munson-Rodbard solution; room temperature; replication assay buffer, ionic strength 200 mM
Cy3-pol η (human DNA polymerase eta, full length, N-terminally labeled with Cy3) (human), sequence (Q9Y253 whole entry): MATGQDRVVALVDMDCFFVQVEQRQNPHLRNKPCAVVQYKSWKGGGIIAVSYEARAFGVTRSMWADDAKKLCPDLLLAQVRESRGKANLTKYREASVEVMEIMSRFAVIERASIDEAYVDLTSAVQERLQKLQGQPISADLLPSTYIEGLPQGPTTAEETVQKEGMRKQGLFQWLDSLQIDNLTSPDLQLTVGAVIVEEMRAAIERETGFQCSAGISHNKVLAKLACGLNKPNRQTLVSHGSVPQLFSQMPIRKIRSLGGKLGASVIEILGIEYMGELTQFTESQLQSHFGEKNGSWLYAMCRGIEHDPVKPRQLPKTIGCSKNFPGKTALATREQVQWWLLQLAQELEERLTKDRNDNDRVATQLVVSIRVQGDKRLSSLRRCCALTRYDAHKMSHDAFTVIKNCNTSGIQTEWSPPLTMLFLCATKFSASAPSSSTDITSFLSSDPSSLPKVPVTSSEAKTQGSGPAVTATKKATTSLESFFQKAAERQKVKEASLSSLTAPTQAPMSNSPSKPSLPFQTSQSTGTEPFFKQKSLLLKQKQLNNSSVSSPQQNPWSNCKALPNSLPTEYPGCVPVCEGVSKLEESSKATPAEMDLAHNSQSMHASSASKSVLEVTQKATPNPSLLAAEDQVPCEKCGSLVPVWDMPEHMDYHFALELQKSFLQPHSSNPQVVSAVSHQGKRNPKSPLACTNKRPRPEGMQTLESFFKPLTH

Wild-type PCNA (human) (human), sequence (P12004 whole entry): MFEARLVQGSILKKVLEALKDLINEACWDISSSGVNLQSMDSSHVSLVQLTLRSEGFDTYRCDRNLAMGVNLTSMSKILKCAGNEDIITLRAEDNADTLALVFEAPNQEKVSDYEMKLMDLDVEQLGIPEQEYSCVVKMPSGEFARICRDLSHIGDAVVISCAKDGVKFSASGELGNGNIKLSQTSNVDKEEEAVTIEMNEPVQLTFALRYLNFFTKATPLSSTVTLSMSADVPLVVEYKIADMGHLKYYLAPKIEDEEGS

With “Exonuclease-deficient human DNA polymerase delta (D402A in the catalytic POLD1 subunit) (from UniProt P28340 1-1107) (complex)” as the substance, how does the probability of insertion (Pi) of pol δ in single turnover primer extension on TT P/T DNA in the presence of PCNA (plateau i = 15 to i = 25); no DNA synthesis without PCNA [1] read?
Its probability of insertion (Pi) of pol δ in single turnover primer extension on TT P/T DNA in the presence of PCNA (plateau i = 15 to i = 25); no DNA synthesis without PCNA is 0.999.

Which results are given for FLUOR-P/T DNA?
Kd [2]: 537 nM; Kd [3]: 29.7 nM

What does the source list for Forked Cy3-P/T DNA?
Kd [4]: < 10 nM; Kd [5]: 28 nM

Which Ki [6] does the source give for “Monoubiquitinated PCNA ((Ub)3-PCNA): a single ubiquitin moiety on K164 of each monomer within a homotrimeric clamp ring (from UniProt P12004 1-261; P0CG48 1-76) (complex)” here?
Its Ki is 119 nM.
